Ends that are not written are not given here.
Legend:
recombinant Siglec5-Fc = molecular target: T1, recombinant Siglec5-Fc (human, UniProt O15389 17-434, limits assumed); experiment: flow cytometry, Fc-fusion on MCF-7 cells, anti-human Fc detection
T1 construct: Bought reagent; not shown: human Fc
T1 sequence (looked up): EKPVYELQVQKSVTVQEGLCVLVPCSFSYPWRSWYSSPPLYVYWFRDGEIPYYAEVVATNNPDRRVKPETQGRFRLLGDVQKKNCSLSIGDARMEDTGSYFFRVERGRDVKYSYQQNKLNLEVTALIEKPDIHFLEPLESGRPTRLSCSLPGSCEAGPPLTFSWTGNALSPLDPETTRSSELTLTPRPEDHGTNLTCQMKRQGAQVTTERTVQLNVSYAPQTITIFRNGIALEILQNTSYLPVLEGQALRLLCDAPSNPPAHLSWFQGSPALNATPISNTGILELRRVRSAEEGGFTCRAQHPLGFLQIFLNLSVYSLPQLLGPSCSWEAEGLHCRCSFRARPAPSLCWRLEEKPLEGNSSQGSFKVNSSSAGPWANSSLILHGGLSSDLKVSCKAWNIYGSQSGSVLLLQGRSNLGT
Experimental: Siglec10 has been reported to interact with the highly sialylated form of CD24. […] Indeed, we observed that CD24 deletion alone is insufficient to completely abrogate Siglec-10-Fc binding in the presence of surface sialylation (FIG. 15a,b).
Neuraminidase treatment and recombinant Siglec binding assay. MCF-7 cells were treated with either neuraminidase (from Vibrio cholerae, Roche) (1×10⁶ cells/100 U/mL) or neuraminidase that was heat inactivated for 15 min at 95° C. prior to incubation for 1 h at 37° C. in serum-free medium, after which reactions were quenched with serum prior to analysis. Recombinant Siglecs (10, 5, and 9) were purchased as human Fc-fusion proteins from R&D Systems. Binding of recombinant Siglecs versus human IgG1 control was assayed at a concentration of 1×10⁵ cells/1 mg/mL at 37° C. for 1 h, in the absence of EDTA. Cells were stained with a fluorescently-conjugated anti-human Fc antibody (Biolegend) to enable the measurement of recombinant Siglec binding by flow cytometry.

[1] = molecular target: T2, Siglec-10 expressed on human donor-derived macrophages (human, UniProt Q96LC7 17-697); experiment: cell-based or functional assay
T2 sequence (looked up): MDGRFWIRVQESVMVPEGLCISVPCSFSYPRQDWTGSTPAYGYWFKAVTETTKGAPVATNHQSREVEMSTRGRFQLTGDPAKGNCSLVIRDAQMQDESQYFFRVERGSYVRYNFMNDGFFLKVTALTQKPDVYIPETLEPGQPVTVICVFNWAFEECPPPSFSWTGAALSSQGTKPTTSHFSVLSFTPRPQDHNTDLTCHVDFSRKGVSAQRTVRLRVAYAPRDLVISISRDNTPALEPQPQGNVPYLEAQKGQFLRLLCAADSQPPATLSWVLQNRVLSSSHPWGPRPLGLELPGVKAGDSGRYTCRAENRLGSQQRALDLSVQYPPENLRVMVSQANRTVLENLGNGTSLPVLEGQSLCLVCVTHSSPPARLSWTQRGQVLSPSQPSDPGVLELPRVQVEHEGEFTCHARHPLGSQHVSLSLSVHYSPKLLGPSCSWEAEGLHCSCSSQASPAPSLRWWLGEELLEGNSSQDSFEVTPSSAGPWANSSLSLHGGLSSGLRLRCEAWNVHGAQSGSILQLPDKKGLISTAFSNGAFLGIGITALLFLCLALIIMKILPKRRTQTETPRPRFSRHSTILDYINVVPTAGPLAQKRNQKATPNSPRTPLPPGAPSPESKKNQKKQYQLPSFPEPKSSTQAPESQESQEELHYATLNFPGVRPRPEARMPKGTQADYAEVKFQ

B1: CD24 expressed on human cancer cells (MCF-7 and other CD24+ cells) (ligand, UniProt P25063 27-59, looked up)
chain: SETTTGTSSNSSQSTSNSGLAPNPTNATTKAAG
modifications: also: heavily glycosylated, sialylated, GPI-anchored
notes: whole, on cells; also called Small Cell Lung Carcinoma Cluster 4 Antigen
binding result (recombinant Siglec5-Fc): no binding (tested: 1×10^5 cells/1 mg/mL) | phagocytosis of CD24-expressing human tumors [1]: ≤ 13 fold

Reference: US20210213055A1 (Stanford University, published 2021)
